# From patent US20260347399A1, “BRAIN PENETRATING PEPTIDES AND METHODS OF USE” (priority 2022, published 2026)
# Legend:
# mutant NRP1 = target: T1, mutant NRP1 (Homo sapiens, UniProt O14786); test: Peptide-phage binding on ELISA plate
# T1 sequence (O14786 273-586 limits assumed): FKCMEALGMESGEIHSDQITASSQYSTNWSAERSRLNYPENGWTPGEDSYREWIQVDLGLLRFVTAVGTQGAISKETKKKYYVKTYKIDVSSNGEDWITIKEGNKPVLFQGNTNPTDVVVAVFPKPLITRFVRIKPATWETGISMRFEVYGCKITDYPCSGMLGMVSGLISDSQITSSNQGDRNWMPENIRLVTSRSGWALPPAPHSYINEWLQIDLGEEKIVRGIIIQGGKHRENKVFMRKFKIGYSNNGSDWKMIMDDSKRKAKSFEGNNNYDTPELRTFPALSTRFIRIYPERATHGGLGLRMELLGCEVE
# Procedure: (§1) Reelin protein (#8546-MR-050; R&D Systems), NRP-1 b1b2 (wt and mutant) or 5% BSA was immobilized on Costar 96-Well ELISA plate (#3590, Corning Life Sciences, Tewksbury, MA, USA). The multiwell plates were coated with 20 μg/ml recombinant protein in 100 μl of PBS overnight at +4 °C, followed by blocking with 1% bovine serum albumin (BSA) in PBS overnight at +4 °C. The phage (5×10^8 pfu in 100 μl of PBS-BSA) was incubated overnight at +4 °C, followed by 6 washes with PBS containing 1% BSA and 0.1% Tween-20 (washing buffer) to remove background phages. BLT5615 OD600=0.5 containing 2 mM IPTG was used to recover the phages and determine the titer of samples.
# (§2) Next, an affinity chromatography was performed to identify a receptor of the CVGTNCY (SEQ ID NO:2), and selected a receptor candidate, which is a secreted extracellular matrix protein Reelin. CVGTNCY (SEQ ID NO:2) binding to Reelin protein was tested by cell free method on ELISA plate. Recombinant human Reelin protein (Ser1221-Gln2666; 163 kDa) was used to coat the ELISA plate and the CVGTNCY (SEQ ID NO:2) peptide-phage was allowed to bind to it. After several washes, the titer of the experiment was determined to rate on the binding efficiency.
# (§3) Reelin was identified from affinity chromatography proteomics data. […] The binding efficiency was evaluated based on the titer (PFU/ml) of each sample. […]
# NRP-1 = target: T2, NRP-1 (Homo sapiens, UniProt O14786); test: Peptide-phage binding on ELISA plate
# T2 sequence (O14786 273-586 limits assumed): T1 sequence (O14786 273-586 limits assumed)
# Procedure: as §1, §2, §3
# 22 different cell-lines = test: CVGTNCY peptide-phage binding on cell lines; type: cell-based, human or mouse; settings: +4 °C, 1 h; over control phage G7
# Procedure: 22 different cell-lines derived from human or mouse tumors or normal tissues were used in the experiments (Table 4).
# To evaluate the CVGTNCY (SEQ ID NO:2) peptide-phage binding on cell lines, the CVGTNCY (SEQ ID NO:2) peptide-phage and control G7 phage were incubated on attached cells (except NCH421k cells that grow as speroids) in DMEM-0.5% BSA for 1 hour at +4 °C. Thereafter, the cells were washed four times with DMEM-0.5% BSA and phage was released in 1% NP40-LB to determine the titer of the samples.
# An in vitro proximity labeling method was planned to use for the identification of the CVGTNCY (SEQ ID NO:2) peptide receptor. To accomplish receptor search, binding of CVGTNCY (SEQ ID NO:2) peptide-phage on 22 different cell-lines isolated from various tumors and normal tissues was tested.
# mouse brain = test: In vivo play-off screen with 4 CX4CYX peptides; settings: compared to CAGALCY
substance,measurement,setting,value
CVGTNCY,binding to mutant NRP1,mutant NRP1,no binding was detected
same,binding to NRP-1,NRP-1,no binding was detected
same,peptide-phage binding on cell lines,22 different cell-lines,minimal binding
same,representation in the brain,mouse brain,highest representation in the brain
